Laboratory results as given in the RNAGym collection of RNA variant scans (doi:10.1093/molbev/msab373).

B1: Azoarcus group I ribozyme (parent)
chain: GUGCCUUGCGCCGGGAAACCACGCAAGGGAUGGUGUCAAAUUCGGCGAAACCUAAGCGCCCGCCCGGGCGUAUGGCAACGCCGAGCCAAGCUUCGGCGCCUGCGCCGAUGAAGGUGUAGAGACUAGACGGCACCCACCUAAGGCAAACGCUAUGGUGAAGGCAUAGUCCAGGGAGUGGCGAAAGUCACACAAACCGG

Variants of: B1
Test: reverse-splicing fitness (ratio to wild type); higher = more active; in vitro selection; Mg2+ level not given
Summary of the method: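 An in vitro group I ribozyme library with randomized positions was T7-transcribed and gel-purified. In triplicate, 10 pmol RNA in EPPS pH 7.5 was reacted with 50 pmoles of a 30-nt RNA substrate for 1 h at 37 °C across several added MgCl2 levels (1–48 mM), then stopped with EDTA. Products were reverse transcribed from a substrate-complementary primer, PCR-amplified and sequenced (HiSeq 4000). Fitness is a variant's read proportion after selection over that before, normalised to wild type.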

Variant	reverse-splicing fitness
C82A A111G A120U A145U C150G	0.00746
C82A A111G A120G C169U U176G	0.00531
C82A A111G A120G C169U U176C	0.0183
C82A A111G A120U A145G C150G C169U	0.00766
C82A A111G A120U A145G C150G C169G	0.00653
C82A A111G A120U A145G C150G C169A	0.00837
C82A A111G A120U A145U C150U C169G	0.00324
C82A A111G A120U A145U C150U C169U	0.00376
C82A A111G A120U A145U C150U C169A	0.00329
C82A A111G A145C C150U C169G U176G	0.00676
C82A A111G A145C C150U C169G U176C	0.0114
C82A A111G A145C C150U C169G U176A	0.0215
C82A A111G A145G C150A C169G U176C	0.0256
C82A A111G A145G C150A C169G U176A	0.0224
C82A A111G A120U A145G U176A	0.00959
C82A A111G A120U A145G U176G	0.00317
C82A A111G A120U A145G U176C	0.0165
C82A A111G A145C C150U C169A U176A	0.0133
C82A A111G A145C C150U C169A U176G	0.00703
C82A A111G A145C C150U C169A U176C	0.00698
C82A A111G A145C C150G C169U U176G	0.00568

Variant	reverse-splicing fitness
C82A A111G A145C C150G C169U U176C	0.0106
C82A A111G A145C C150G C169U U176A	0.00799
C82A A111G A120U A145G C169G U176G	0.00191
C82A A111G A120U A145G C169G U176C	0.00421
C82A A111G A120U A145G C169G U176A	0.00375
C82A A111G A120U A145C C150G U176G	0.00262
C82A A111G A120U A145C C150G U176A	0.00295
C82A A111G A120U A145C C150G U176C	0.00393
C82A A111G A145C C150A C169A U176C	0.00723
C82A A111G A145C C150A C169A U176G	0.00644
C82A A111G A145C C150A C169A U176A	0.0122
C82A A111G A120U A145C C169G U176C	0.00189
C82A A111G A120U A145C C169G U176A	0.00249
C82A A111G A120U A145C C169G U176G	0.00175
C82A A111G A120U A145U C150A C169G	0.00258
C82A A111G A120U A145U C150A C169U	0.00275
C82A A111G A120U A145U C150A C169A	0.00209
C82A A111G A120U A145U C169A U176G	0.00145
C82A A111G A120U A145U C169A U176A	0.00218
C82A A111G A120U A145U C169A U176C	0.00249
C82A A111G A120U A145U C150U C169A U176C	0.00235

Variant	reverse-splicing fitness
C82A A111G A120U A145U C150U C169A U176A	0.00237
C82A A111G A120U A145U C150U C169A U176G	0.00171
C82A A111G A120U A145G C150A C169A U176C	0.0046
C82A A111G A120U A145G C150A C169A U176G	0.00291
C82A A111G A120U A145G C150A C169A U176A	0.00865
C82A A111G A120U A145C C169U	0.00349
C82A A111G A120U A145C C169A	0.00203
C82A A111G A120U A145C C169G	0.00315
C82A A111G A145C C150A C169U	0.0104
C82A A111G A145C C150A C169A	0.00955
C82A A111G A145C C150A C169G	0.00918
C82A A111G A120U	0.0351
C82A A111G A145G C150A C169A U176G	0.00749
C82A A111G A145G C150A C169A U176C	0.0215
C82A A111G A145G C150A C169A U176A	0.0216
C82A A111G A120U A145C C150G C169U U176G	0.00231
C82A A111G A120U A145C C150G C169U U176A	0.00268
C82A A111G A120U A145C C150G C169U U176C	0.0028
C82A A111G A145G C150A C169A	0.0118
C82A A111G A145G C150A C169G	0.00998
C82A A111G A120U A145U C150A U176C	0.00602

Variant	reverse-splicing fitness
C82A A111G A120U A145U C150A U176G	0.00197
C82A A111G A120U A145U C150A U176A	0.00478
C82A A111G A120U A145U C169G U176G	0.00177
C82A A111G A120U A145U C169G U176A	0.00272
C82A A111G A120U A145U C169G U176C	0.00235
C82A A111G A145C C169A U176A	0.0123
C82A A111G A145C C169A U176G	0.00582
C82A A111G A145C C169A U176C	0.00756
C82A A111G A120U A145C C150G C169A U176G	0.00179
C82A A111G A120U A145C C150G C169A U176C	0.00205
C82A A111G A120U A145C C150G C169A U176A	0.00214
C82A A111G A120U A145G C150G C169G U176C	0.00646
C82A A111G A120U A145G C150G C169G U176A	0.00925
C82A A111G A120U A145G C150G C169G U176G	0.00316
C82A A111G A120U A145U C150G C169G U176C	0.00281
C82A A111G A120U A145U C150G C169G U176G	0.00259
C82A A111G A120U A145U C150G C169G U176A	0.00352
C82A A111G A120U A145G C150G U176G	0.00403
C82A A111G A120U A145G C150G U176A	0.00592
C82A A111G A120U A145G C150G U176C	0.00835
